Data: US20120058906A1 (published 2012)
Numbering of substitutions follows the chain as printed. Each block holds one binder with its values, some of them ahead of it.

Assays:
[1] = biological target: T1, rHuman Notch-1/Fc Chimera, CF (R&D Systems Cat#3647-TK) (human, UniProt P46531 19-526); assay: ECL (MSD Multi-Spot) binding assay, antigen spotted on plate; Fab 3.8 nM; blank spot 198
T1 construct: Bought Fc chimera; Fc part of the bought chimera not given

[2] = biological target: T2, rHuman CD44/Fc Chimera, CF (R&D Systems Cat#3660-CD) (human, UniProt P16070 21-220); assay: as above
T2 construct: Bought Fc chimera; Fc part of the bought chimera not given

[3] = biological target: T3, rHuman Erythropoietin R/Fc Chimera, CF (R&D Systems Cat#963-ER) (human, UniProt P19235 25-250); assay: as above
T3 construct: Bought Fc chimera; also called EPO R/Fc; Epo R; Fc part of the bought chimera not given
T3 sequence: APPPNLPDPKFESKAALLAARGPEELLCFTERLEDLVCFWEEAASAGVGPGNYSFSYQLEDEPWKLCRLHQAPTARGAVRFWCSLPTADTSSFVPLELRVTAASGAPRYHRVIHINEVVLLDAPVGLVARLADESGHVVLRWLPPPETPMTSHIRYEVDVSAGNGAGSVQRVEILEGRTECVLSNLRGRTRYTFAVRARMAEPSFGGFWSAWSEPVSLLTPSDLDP

[4] = biological target: T4, rHuman P-Cadherin/Fc Chimera, CF (R&D Systems Cat#861-PC) (human, UniProt P22223 108-654); assay: as above
T4 construct: Bought Fc chimera; also called CDH3; Fc part of the bought chimera not given

[5] = biological target: T5, Recombinant Human DLL4 (R&D Systems Cat#1506-D4/CF) (human, UniProt Q9NR61 27-524); assay: as above
T5 construct: Bought recombinant protein; also called delta-like protein 4; rHuman DLL4

[6] = biological target: T2, rHuman CD44/Fc Chimera, CF (R&D Systems …); assay: ECL (MSD Multi-Spot) binding assay, antigen spotted on plate; Fab 480 nM; blank spot 362
[7] = biological target: T3, rHuman Erythropoietin R/Fc Chimera, CF …; assay: as above
[8] = biological target: T4, rHuman P-Cadherin/Fc Chimera, CF (R&D …); assay: as above
[9] = biological target: T6, rHuman HGF R/c-MET/Fc Chimera, CF (R&D Systems Cat#358-MT/CF) (human, UniProt P08581 25-932); assay: ECL (MSD Multi-Spot) binding, antigen spotted on plate; Fab 500 nM
T6 construct: Bought Fc chimera; also called HGF R/Fc; hepatocyte growth factor receptor; Fc part of the bought chimera not given

[10] = biological target: T7, rHuman Notch-1/Fc Chimera, CF (R&D Systems Cat#3647-TK) (human, UniProt P46531 19-526); assay: as above
T7 construct: Bought Fc chimera; Fc part of the bought chimera not given

[11] = biological target: T8, rHuman CD44/Fc Chimera, CF (R&D Systems Cat#3660-CD) (human, UniProt P16070 21-220); assay: as above
T8 construct: Bought Fc chimera; Fc part of the bought chimera not given

[12] = biological target: T9, rHuman Erythropoietin R/Fc Chimera, CF (R&D Systems Cat#963-ER) (human, UniProt P19235 25-250); assay: as above
T9 construct: Bought Fc chimera; also called EPO R/Fc; erythropoietin receptor; Fc part of the bought chimera not given
T9 sequence: T3 sequence

[13] = biological target: T10, rHuman ErbB2/Fc Chimera, CF (R&D Systems Cat#1129-ER) (human, UniProt P04626 23-652); assay: as above
T10 construct: Bought Fc chimera; also called human epidermal growth factor 2 receptor; HER2/neu; Fc part of the bought chimera not given

[14] = biological target: T11, rHuman EGF R/Fc Chimera, CF (R&D Systems Cat#344-ER) (human, UniProt P00533 25-645); assay: as above
T11 construct: Bought Fc chimera; also called epidermal growth factor receptor; Fc part of the bought chimera not given

[15] = biological target: T12, rHuman IGF-1 sR, CF (R&D Systems Cat#391-GR) (human, UniProt P08069 31-932); assay: as above
T12 construct: Bought soluble receptor; also called insulin-like growth factor-1 soluble receptor; IGF-R1

[16] = biological target: T13, Recombinant Human DLL4 (R&D Systems Cat#1506-D4/CF) (human, UniProt Q9NR61 27-524); assay: as above
T13 construct: Bought recombinant protein; also called delta-like protein 4

[17] = biological target: T14, rHuman P-Cadherin/Fc Chimera, CF (R&D Systems Cat#861-PC) (human, UniProt P22223 108-654); assay: as above
T14 construct: Bought Fc chimera; Fc part of the bought chimera not given

[18] = biological target: T15, rHuman CD44/Fc Chimera, CF (R&D Systems Cat#3660-CD) (human, UniProt P16070 21-220); assay: ECL (MSD multi-spot), antigen on plate, Fab 10 nM
T15 construct: Bought Fc chimera; not shown: Fc of the bought chimera

[19] = biological target: T16, rHuman Notch-1/Fc Chimera, CF (R&D Systems Cat#3647-TK) (human, UniProt P46531 19-526); assay: ECL (MSD multi-spot), antigen on plate, Fab 10 nM
T16 construct: Bought Fc chimera; not shown: Fc of the bought chimera
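Further: blank spot per well as comparator with Hit at signal to blank ratio of 4 or more.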

- ECL signal [1]: 383
- ECL signal [2]: 419
- ECL signal [3]: 407
- ECL signal [4]: 281
- ECL signal [5]: 462
- ECL signal [6]: 541
- ECL signal [7]: 621
- ECL signal [8]: 596
B1: Fab VH6-1_IGHD3-3*01_IGHJ4*01 & V4-3_IGLJ4*01 (Fab, V domains shown)
VH: QVQLQQSGPGLVKPSQTLSLTCAISGDSVSSNSAAWNWIRQSPSRGLEWLGRTYYRSKWYNDYAVSVKSRITINPDTSKNQFSLQLNSVTPEDTAVYYCAREYYDFWSGYYTDYFDYWGQGTLVTVSS
VL: QPVLTQPTSLSASPGASARLTCTLRSGINLGSYRIFWYQQKPESPPRYLLSYYSDSSKHQGSGVPSRFSGSKDASSNAGILVISGLQSEDEADYYCMIWHSSASFVFGGGTQLIIL
notes: Tested as a Fab made in E. coli; also called IGHV6-1*01

- ECL signal [9]: 523
- ECL signal [10]: 644
- ECL signal [11]: 664
- ECL signal [12]: 1210
- ECL signal [13]: 713
- ECL signal [14]: 898
- ECL signal [15]: 592
- ECL signal [16]: 93100
- ECL signal [17]: 939
B2: Fab VH1-46_IGHD6-6*01_IGHJ1*01_S102A_S103P_S104F_H111Y & L6_IGKJ1*01 (Fab, V domains shown)
VH: QVQLVQSGAEVKKPGASVKVSCKASGYTFTSYYMHWVRQAPGQGLEWMGIINPSGGSTSYAQKFQGRVTMTRDTSTSTVYMELSSLRSEDTAVYYCAREEYAPFSAEYFQYWGQGTLVTVSS
VL: not shown
notes: Fab made in E. coli; The heavy chain also carries the CH1 with Flag and His tags of Plasmid A, and the light chain the kappa constant region of Plasmid C

- ECL signal [18]: 352 ECL signal
- ECL signal [19]: 388 ECL signal
B3: Fab VH1-46_IGHD6-6*01_IGHJ1*01_S102A_S103P_S104F & L6_IGKJ1*01_S31K (Fab, V domains shown)
VH: B2 VH with Y111H
VL: EIVLTQSPATLSLSPGERATLSCRASQSVSKYLAWYQQKPGQAPRLLIYDASNRATGIPARFSGSGSGTDFTLTISSLEPEDFAVYYCQQRSNWPPWTFGQGTKVEIKR
notes: Fab
